Test results reported in IntAct's records for PubMed 31515488.

B1: Trichoplein keratin filament-binding protein (Homo sapiens), Q9BT92 (parent)
chain: MALPTLPSYWCSQQRLNQQLARQREQEARLRQQWEQNSRYFRMSDICSSKQAEWSSKTSYQRSMHAYQREKMKEEKRRSLEARREKLRQLMQEEQDLLARELEELRLSMNLQERRIREQHGKLKSAKEEQRKLIAEQLLYEHWKKNNPKLREMELDLHQKHVVNSWEMQKEEKKQQEATAEQENKRYENEYERARREALERMKAEEERRQLEDKLQAEALLQQMEELKLKEVEATKLKKEQENLLKQRWELERLEEERKQMEAFRQKAELGRFLRHQYNAQLSRRTQQIQEELEADRRILQALLEKEDESQRLHLARREQVMADVAWMKQAIEEQLQLERAREAELQMLLREEAKEMWEKREAEWARERSARDRLMSEVLTGRQQQIQEKIEQNRRAQEESLKHREQLIRNLEEVRELARREKEESEKLKSARKQELEAQVAERRLQAWEADQQEEEEEEEARRVEQLSDALLQQEAETMAEQGYRPKPYGHPKIAWN
B2: Kelch-like protein 2 (Homo sapiens), O95198 (parent)
chain: METPPLPPACTKQGHQKPLDSKDDNTEKHCPVTVNPWHMKKAFKVMNELRSQNLLCDVTIVAEDMEISAHRVVLAACSPYFHAMFTGEMSESRAKRVRIKEVDGWTLRMLIDYVYTAEIQVTEENVQVLLPAAGLLQLQDVKKTCCEFLESQLHPVNCLGIRAFADMHACTDLLNKANTYAEQHFADVVLSEEFLNLGIEQVCSLISSDKLTISSEEKVFEAVIAWVNHDKDVRQEFMARLMEHVRLPLLPREYLVQRVEEEALVKNSSACKDYLIEAMKYHLLPTEQRILMKSVRTRLRTPMNLPKLMVVVGGQAPKAIRSVECYDFKEERWHQVAELPSRRCRAGMVYMAGLVFAVGGFNGSLRVRTVDSYDPVKDQWTSVANMRDRRSTLGAAVLNGLLYAVGGFDGSTGLSSVEAYNIKSNEWFHVAPMNTRRSSVGVGVVGGLLYAVGGYDGASRQCLSTVECYNATTNEWTYIAEMSTRRSGAGVGVLNNLLYAVGGHDGPLVRKSVEVYDPTTNAWRQVADMNMCRRNAGVCAVNGLLYVVGGDDGSCNLASVEYYNPTTDKWTVVSSCMSTGRSYAGVTVIDKPL
B3: Zinc finger protein 544 (Homo sapiens), Q6NX49 (parent)
chain: MEARSMLVPPQASVCFEDVAMAFTQEEWEQLDLAQRTLYREVTLETWEHIVSLGLFLSKSDVISQLEQEEDLCRAEQEAPRDWKATLEENRLNSEKDRAREELSHHVEVYRSGPEEPPSLVLGKVQDQSNQLREHQENSLRFMVLTSERLFAQREHCELELGGGYSLPSTLSLLPTTLPTSTGFPKPNSQVKELKQNSAFINHEKNGADGKHCESHQCARAFCQSIYLSKLGNVETGKKNPYEYIVSGDSLNYGSSLCFHGRTFSVKKSDDCKDYGNLFSHSVSLNEQKPVHFGKSQYECDECRETCSESLCLVQTERSGPGETPFRCEERCAAFPMASSFSDCNIIQTTEKPSVCNQCGKSFSCCKLIHQRTHTGEKPFECTQCGKSFSQSYDLVIHQRTHTGEKPYECDLCGKSFTQRSKLITHQRIHTGEKPYQCIECRKSFRWNSNLIVHQRIHTGEKPYECTHCGKSFSQSYELVTHKRTHTGEKPFKCTQCGKSFSQKYDLVVHQRTHTGEKPYECNLCGKSFSQSSKLITHQRIHTGEKPYQCIECGKSFRWNSNLVIHQRIHTGEKPYDCTHCGKSFSQSYQLVAHKRTHTGEKPYECNECGKAFNRSTQLIRHLQIHTGEKPYKCNQCNKAFARSSYLVMHQRTHTGEKPFECSQCGKAFSGSSNLLSHHRIHSGEKPYECSDCGKSFRQQSQLVVHRRTHTGEKP
partner: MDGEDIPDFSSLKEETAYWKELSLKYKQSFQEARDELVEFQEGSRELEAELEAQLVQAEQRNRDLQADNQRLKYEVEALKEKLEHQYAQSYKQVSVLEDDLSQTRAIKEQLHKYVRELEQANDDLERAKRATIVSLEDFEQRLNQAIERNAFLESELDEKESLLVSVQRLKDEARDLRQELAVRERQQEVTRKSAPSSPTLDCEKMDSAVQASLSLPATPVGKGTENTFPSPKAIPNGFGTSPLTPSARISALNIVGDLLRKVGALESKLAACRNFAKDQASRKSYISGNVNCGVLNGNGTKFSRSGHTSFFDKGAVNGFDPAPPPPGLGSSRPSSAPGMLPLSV
B4: Vacuolar protein-sorting-associated protein 25 (Homo sapiens), Q9BRG1 (parent)
chain: MAMSFEWPWQYRFPPFFTLQPNVDTRQKQLAAWCSLVLSFCRLHKQSSMTVMEAQESPLFNNVKLQRKLPVESIQIVLEELRKKGNLEWLDKSKSSFLIMWRRPEEWGKLIYQWVSRSGQNNSVFTLYELTNGEDTEDEEFHGLDEATLLRALQALQQEHKAEIITVSDGRGVKFF
partner: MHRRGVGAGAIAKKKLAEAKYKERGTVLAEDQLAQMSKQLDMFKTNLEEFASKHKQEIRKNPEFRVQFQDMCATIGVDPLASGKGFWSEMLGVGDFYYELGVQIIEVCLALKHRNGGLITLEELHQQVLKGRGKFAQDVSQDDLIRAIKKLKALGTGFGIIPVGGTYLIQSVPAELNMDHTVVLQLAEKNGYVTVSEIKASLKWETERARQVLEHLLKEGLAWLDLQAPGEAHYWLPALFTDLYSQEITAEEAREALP
B5: Protein LDOC1 (Homo sapiens), O95751 (parent)
chain: MVDELVLLLHALLMRHRALSIENSQLMEQLRLLVCERASLLRQVRPPSCPVPFPETFNGESSRLPEFIVQTASYMLVNENRFCNDAMKVAFLISLLTGEAEEWVVPYIEMDSPILGDYRAFLDEMKQCFGWDDDEDDDDEEEEDDY
partner: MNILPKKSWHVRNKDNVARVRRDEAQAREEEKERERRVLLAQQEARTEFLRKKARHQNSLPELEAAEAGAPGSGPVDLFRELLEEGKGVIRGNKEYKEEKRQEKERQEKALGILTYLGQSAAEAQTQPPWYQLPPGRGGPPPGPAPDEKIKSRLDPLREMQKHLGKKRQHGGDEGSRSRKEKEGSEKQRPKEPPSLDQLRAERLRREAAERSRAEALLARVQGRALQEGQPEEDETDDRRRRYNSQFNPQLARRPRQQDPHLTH
B6: Protein-associating with the carboxyl-terminal domain of ezrin (Homo sapiens), Q8IZE3 (parent)
chain: MGSENSALKSYTLREPPFTLPSGLAVYPAVLQDGKFASVFVYKRENEDKVNKAAKHLKTLRHPCLLRFLSCTVEADGIHLVTERVQPLEVALETLSSAEVCAGIYDILLALIFLHDRGHLTHNNVCLSSVFVSEDGHWKLGGMETVCKVSQATPEFLRSIQSIRDPASIPPEEMSPEFTTLPECHGHARDAFSFGTLVESLLTILNEQVSADVLSSFQQTLHSTLLNPIPKCRPALCTLLSHDFFRNDFLEVVNFLKSLTLKSEEEKTEFFKFLLDRVSCLSEELIASRLVPLLLNQLVFAEPVAVKSFLPYLLGPKKDHAQGETPCLLSPALFQSRVIPVLLQLFEVHEEHVRMVLLSHIEAYVEHFTQEQLKKVILPQVLLGLRDTSDSIVAITLHSLAVLVSLLGPEVVVGGERTKIFKRTAPSFTKNTDLSLEDSPMCVVCSHHSQISPILENPFSSIFPKCFFSGSTPINSKKHIQRDYYNTLLQTGDPFSQPIKFPINGLSDVKNTSEDSENFPSSSKKSEEWPDWSEPEEPENQTVNIQIWPREPCDDVKSQCTTLDVEESSWDDCEPSSLDTKVNPGGGITATKPVTSGEQKPIPALLSLTEESMPWKSSLPQKISLVQRGDDADQIEPPKVSSQERPLKVPSELGLGEEFTIQVKKKPVKDPEMDWFADMIPEIKPSAAFLILPELRTEMVPKKDDVSPVMQFSSKFAAAEITEGEAEGWEEEGELNWEDNNW
partner: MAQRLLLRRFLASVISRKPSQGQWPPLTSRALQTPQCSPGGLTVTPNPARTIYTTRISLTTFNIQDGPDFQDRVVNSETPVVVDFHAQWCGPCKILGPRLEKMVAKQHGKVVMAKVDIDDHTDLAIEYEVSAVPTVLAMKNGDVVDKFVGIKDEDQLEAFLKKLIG

Variants of: B1
Settings: with ndk7_human NME7, Q9Y5B8
Sequence of ndk7_human NME7, Q9Y5B8 (Q9Y5B8 whole entry): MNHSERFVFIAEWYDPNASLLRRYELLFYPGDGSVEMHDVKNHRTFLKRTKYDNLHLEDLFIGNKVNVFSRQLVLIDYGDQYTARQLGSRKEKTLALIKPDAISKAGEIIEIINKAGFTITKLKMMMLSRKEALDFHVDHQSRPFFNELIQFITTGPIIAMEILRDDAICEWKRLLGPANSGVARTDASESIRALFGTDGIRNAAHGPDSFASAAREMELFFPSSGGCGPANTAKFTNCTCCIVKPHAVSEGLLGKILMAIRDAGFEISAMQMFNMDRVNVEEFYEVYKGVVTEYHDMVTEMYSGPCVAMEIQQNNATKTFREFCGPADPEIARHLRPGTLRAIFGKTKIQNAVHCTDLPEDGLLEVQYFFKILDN
For E417K, the “effect of a mutation on the interaction” value was “with no effect”.

Variants of: B1
Settings: with KRT15, P19012
Sequence of KRT15, P19012 (P19012 whole entry): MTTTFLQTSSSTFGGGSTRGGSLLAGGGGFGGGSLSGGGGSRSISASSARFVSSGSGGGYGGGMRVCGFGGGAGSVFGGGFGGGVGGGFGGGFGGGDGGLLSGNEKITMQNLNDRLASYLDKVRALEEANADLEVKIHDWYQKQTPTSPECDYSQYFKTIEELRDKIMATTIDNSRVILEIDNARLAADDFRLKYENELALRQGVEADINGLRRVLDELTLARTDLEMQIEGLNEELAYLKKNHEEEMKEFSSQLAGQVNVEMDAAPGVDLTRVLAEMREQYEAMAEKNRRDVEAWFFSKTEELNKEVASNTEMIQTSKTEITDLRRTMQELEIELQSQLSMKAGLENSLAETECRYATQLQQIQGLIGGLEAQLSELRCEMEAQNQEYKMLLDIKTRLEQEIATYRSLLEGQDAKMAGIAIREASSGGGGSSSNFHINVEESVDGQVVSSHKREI
For R62Q, the “effect of a mutation on the interaction” value was “with no effect”.

Variants of: B2
Settings: with txd12_human TXNDC12, O95881
Sequence of txd12_human TXNDC12, O95881 (O95881 whole entry): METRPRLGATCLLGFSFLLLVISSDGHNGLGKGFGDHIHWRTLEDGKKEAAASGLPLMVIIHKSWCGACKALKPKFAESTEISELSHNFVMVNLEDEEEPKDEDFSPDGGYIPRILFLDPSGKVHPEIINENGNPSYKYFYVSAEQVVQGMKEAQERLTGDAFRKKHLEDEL
For A480T, the “effect of a mutation on the interaction” value was “with no effect”. In the case of S68A, the “effect of a mutation on the interaction” value is reported as “with no effect”.

Variants of: B2
Settings: with tma16_human TMA16, Q96EY4
A480T was tested, and the “effect of a mutation on the interaction” value was “with no effect”. In the case of S68A, the “effect of a mutation on the interaction” value is reported as “with no effect”.

Variants of: B2
Settings: with cul3_human CUL3, Q13618
V156I was tested, and the “effect of a mutation on the interaction” value was “with no effect”.

Variants of: B2
Settings: with zn114_human ZNF114, Q8NC26
Sequence of zn114_human ZNF114, Q8NC26 (Q8NC26 whole entry): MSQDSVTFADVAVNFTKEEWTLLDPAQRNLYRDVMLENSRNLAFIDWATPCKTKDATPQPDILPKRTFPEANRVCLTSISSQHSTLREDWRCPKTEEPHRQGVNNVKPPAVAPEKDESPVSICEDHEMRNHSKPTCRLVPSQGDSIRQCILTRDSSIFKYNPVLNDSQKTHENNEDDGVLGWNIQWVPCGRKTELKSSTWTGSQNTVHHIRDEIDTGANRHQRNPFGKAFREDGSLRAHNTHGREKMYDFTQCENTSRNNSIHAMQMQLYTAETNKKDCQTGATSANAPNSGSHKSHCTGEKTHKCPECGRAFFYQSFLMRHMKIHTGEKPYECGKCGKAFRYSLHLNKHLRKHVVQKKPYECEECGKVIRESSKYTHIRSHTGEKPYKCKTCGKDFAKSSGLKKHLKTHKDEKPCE
V156I was tested, and the “effect of a mutation on the interaction” value was “with no effect”.

Variants of: B3
Settings: with ndel1_human NDEL1, Q9GZM8
For K406M, the “effect of a mutation on the interaction” value was “with no effect”.

Variants of: B4
Settings: with snf8_human SNF8, Q96H20
For I76V, the “effect of a mutation on the interaction” value was “with no effect”.

Variants of: B5
Settings: with leng1_human LENG1, Q96BZ8
L12H was tested, and the “effect of a mutation on the interaction” value was “disrupting interaction strength”.

Variants of: B6
Settings: with thiom_human TXN2, Q99757
In the case of Q621R, the “effect of a mutation on the interaction” value is reported as “with no effect”.
